Laboratory results as given in US20220259306A1.

Molecular target: hFc-tagged NKG2A/CD94 protein (NKG2A/CD94-hFc), immunogen A (human) (UniProt P26715)
Assay: ELISA on NKG2A/CD94-hFc protein (immunogen A), OD 450 nm

Chain of hFc-tagged NKG2A/CD94 protein (NKG2A/CD94-hFc), immunogen A (human) (P26715 94-233 limits assumed, chain 1 of 2): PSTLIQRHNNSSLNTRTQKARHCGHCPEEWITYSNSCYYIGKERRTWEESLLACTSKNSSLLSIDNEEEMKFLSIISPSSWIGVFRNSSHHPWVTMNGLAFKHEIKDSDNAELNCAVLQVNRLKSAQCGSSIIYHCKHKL
Chain of hFc-tagged NKG2A/CD94 protein (NKG2A/CD94-hFc), immunogen A (human) (chain, as listed by the source limits assumed, chain 2 of 2): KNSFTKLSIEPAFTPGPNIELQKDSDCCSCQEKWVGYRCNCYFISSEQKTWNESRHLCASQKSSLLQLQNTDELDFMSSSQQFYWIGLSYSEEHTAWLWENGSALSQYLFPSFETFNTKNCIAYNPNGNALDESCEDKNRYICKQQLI

| Substance | EC50 (read off the curve) |
| --- | --- |
| control antibody-1 | 0.06 nM |
| control antibody-2 | 0.1 nM |
